From patent publication US20120164129

Tests used:
Fibrinogen = Fibrinogen (UniProt P02671)
[1] = target: Ecarin-activatable E-WE Prethrombin-2 (W215A/E217A/N282D/P283G)

Chain of UniProt P02671 (P02671 20-629, chain 1 of 3): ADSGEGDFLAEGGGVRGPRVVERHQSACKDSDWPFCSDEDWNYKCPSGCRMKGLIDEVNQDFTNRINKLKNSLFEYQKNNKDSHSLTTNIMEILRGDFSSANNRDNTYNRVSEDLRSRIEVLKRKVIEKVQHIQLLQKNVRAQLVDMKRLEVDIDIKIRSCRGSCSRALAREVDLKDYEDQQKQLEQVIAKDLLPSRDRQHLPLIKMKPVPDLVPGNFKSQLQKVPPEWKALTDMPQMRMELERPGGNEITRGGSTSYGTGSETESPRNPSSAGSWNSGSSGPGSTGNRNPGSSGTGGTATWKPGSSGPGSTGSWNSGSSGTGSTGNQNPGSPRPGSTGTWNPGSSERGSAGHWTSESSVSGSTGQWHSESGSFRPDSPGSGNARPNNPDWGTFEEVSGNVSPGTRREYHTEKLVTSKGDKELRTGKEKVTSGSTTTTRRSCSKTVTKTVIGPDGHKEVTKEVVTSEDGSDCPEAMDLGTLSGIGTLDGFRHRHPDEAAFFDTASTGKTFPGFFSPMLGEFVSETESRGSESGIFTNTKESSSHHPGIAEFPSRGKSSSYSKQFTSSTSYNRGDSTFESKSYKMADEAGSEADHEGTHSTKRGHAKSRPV
Chain of UniProt P02671 (chain, as listed by the source, chain 2 of 3): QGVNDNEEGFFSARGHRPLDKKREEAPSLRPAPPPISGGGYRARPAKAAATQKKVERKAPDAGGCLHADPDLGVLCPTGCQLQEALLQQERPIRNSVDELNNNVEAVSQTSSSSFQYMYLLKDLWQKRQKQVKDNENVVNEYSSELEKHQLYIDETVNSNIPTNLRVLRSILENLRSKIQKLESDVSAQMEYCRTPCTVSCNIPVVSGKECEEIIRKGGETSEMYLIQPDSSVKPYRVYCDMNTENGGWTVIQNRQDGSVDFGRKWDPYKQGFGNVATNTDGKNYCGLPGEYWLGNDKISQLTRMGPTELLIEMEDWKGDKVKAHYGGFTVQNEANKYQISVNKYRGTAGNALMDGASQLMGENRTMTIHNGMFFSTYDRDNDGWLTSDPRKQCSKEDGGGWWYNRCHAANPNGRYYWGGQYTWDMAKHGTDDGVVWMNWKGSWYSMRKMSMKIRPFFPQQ
Chain of UniProt P02671 (chain, as listed by the source, chain 3 of 3): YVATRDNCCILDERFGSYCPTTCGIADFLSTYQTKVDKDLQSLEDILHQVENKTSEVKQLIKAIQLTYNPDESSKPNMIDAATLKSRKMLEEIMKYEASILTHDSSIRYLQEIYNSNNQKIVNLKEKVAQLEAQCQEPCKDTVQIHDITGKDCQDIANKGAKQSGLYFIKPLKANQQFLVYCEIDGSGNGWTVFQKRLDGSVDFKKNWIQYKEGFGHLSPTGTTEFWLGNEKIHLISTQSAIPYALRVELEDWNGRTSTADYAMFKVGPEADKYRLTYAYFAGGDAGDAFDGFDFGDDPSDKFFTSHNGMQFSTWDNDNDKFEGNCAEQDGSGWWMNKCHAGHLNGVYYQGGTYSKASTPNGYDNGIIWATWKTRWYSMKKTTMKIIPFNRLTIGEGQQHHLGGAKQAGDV

Question: “E. coli-derived recombinant E-WE thrombin (W215A/E217A), prepared from E-WE prethrombin-2 expressed in E. coli” was tested. Which specificity toward fibrinogen (Fibrinogen) did it give?
Answer: consistently shows lower specificity toward fibrinogen compared to the BHK-expressed construct

Question: How did the activity toward fibrinogen (Fibrinogen) turn out when “WE thrombin (W215A/E217A) prepared from WE prethrombin-1 expressed in BHK cells” was run?
Answer: BHK produces a construct with significantly higher activity toward FPR and fibrinogen

B1: Echis carinatus snake venom prothrombin activator (ecarin) (protein)
chain: VPPHERKFEKKFIELVVVVDHSMVTKYNNDSTAIRTWIYEMLNTVNEIYLPFNIRVALVGLEFWCNGDLINVTSTADDTLHSFGEWRASDLLNRKRHDHAQLLTNVTLDHSTLGITFVYGMCKSDRSVELILDYSNITFNMAYIIAHEMGHSLGMLHDTKFCTCGAKPCIMFGKESIPPPKEFSSCSYDQYNKYLLKYNPKCILDPPLRKDIASPAVCGNEIWEEGEECDCGSPADCRNPCCDAATCKLKPGAECGNGECCDKCKIRKAGTECRPARDDCDVAEHCTGQSAECPRNEFQRNGQPCLNNSGYCYNGDCPIMLNQCIALFSPSATVAQDSCFQRNLQGSYYGYCTKEIGYYGKRFPCAPQDVKCGRLYCLDNSFKKNMRCKNDYSYADENKGIVEPGTKCEDGKVCINRKCVDVNTAY
Question: What does the source list for B1?
Answer: proteolytic cleavage at the engineered ecarin site [1]: Cleavage also occurred at the engineered ecarin site that had been introduced preceding the A chain; proteolytic cleavage between the A and B chains [1]: The expected cleavage took place between the A and B chains to form an A chain-extended E-WE thrombin
